Results taken from the supplement of paper PMC10567573.
± gives the standard deviation.

Experiment: protein stability index of a GFP-peptide fusion (GPS, HEK-293T) (PSI 1-6); higher = more stable
[1] = treatment: DMSO, c terminus: a fixed tail appended
[2] = treatment: MLN4924 1 uM, 8 h, c terminus: a fixed tail appended
[3] = treatment: DMSO, c terminus: native
[4] = treatment: MLN4924 1 uM, 8 h, c terminus: native
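Also: 24-mer peptide tiles fused after GFP, lentivirally expressed, FACS-sorted into six equal bins by GFP/DsRed ratio, decoded by Illumina sequencing, PSI is the read-weighted mean bin number.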

VMSEGLGMRYAFIGPLETMHLNAE [CRYL1]
protein stability index [1]: 2.05 ± 0.23
protein stability index [2]: 2.05 ± 0.4

WCLRVNPKGLDDESKDYLSLYLLL [SPOPL]
protein stability index [1]: 2.96 ± 0.41
protein stability index [2]: 3.08 ± 0.69

PGMPPPVPRPGIPPMTQAQAVSAP [ZNF207]
protein stability index [1]: 4.94 ± 0.15
protein stability index [2]: 4.86 ± 0.19

HHSFPYDYSASEYRWHINFTTFFI [SCD]
protein stability index [1]: 3.06 ± 0.5
protein stability index [2]: 2.86 ± 0.41

LQVAGLSEEQLQEPITGWRKTVCH [LPCAT4]
protein stability index [1]: 3.29 ± 0.25
protein stability index [2]: 3.47 ± 0.12

LIQNGGEIDCVDKDGNTPLHVAAR [ANKRD44]
protein stability index [1]: 4.32 ± 0.087
protein stability index [2]: 4.53 ± 0.16

TSVDHDRAPVVGVRVNVLLSRYLI [DLC1]
protein stability index [2]: 3.12 ± 1.8

RILQDEQYLMASDMAGKIKLWDLR [DCAF4]
protein stability index [1]: 2.75 ± 0.34
protein stability index [2]: 3.01 ± 0.12

PDARPHRRPHELLPVGGRLPGPTR [HAGHL]
protein stability index [1]: 4.6 ± 0.14
protein stability index [2]: 4.57 ± 0.3

MKMEEAVGKVEELIESEAPPKASE [C18orf25]
protein stability index [1]: 5.59 ± 0.15
protein stability index [2]: 5.48 ± 0.57

RDFHRKILTLPEMMRMFSENLAHH [TRIM15]
protein stability index [1]: 2.25 ± 0.17
protein stability index [2]: 2.31 ± 0.051

FNSTYNARVKAFNKTGVSPYSKTL [TRIM9]
protein stability index [1]: 2.55 ± 0.41
protein stability index [2]: 2.85 ± 0.38

QAIVTEDKTDISSGRARQQDEEML [MLH1]
protein stability index [1]: 5.23 ± 0.22
protein stability index [2]: 5.38 ± 0.14

SYQEEAAMELKVEDPFYWVSPGVL [MOG]
protein stability index [1]: 3.25 ± 0.5
protein stability index [2]: 3.28 ± 0.13

LLEDARRKGMPFAQWDGPTVVSWL [PPFIA4]
protein stability index [1]: 2.11 ± 0.15
protein stability index [2]: 2.01 ± 0.33

PPAQGRVSRRLSPRKVSTCTDHEL [TRIM9]
protein stability index [1]: 5.031 ± 0.046
protein stability index [2]: 4.87 ± 0.35

TLALQGTQGQEKMMMMGPKEEEQS [ZNF232]
protein stability index [1]: 5.29 ± 0.31
protein stability index [2]: 5.43 ± 0.14

AEEETLSRELEPELRRRRYEYDHW [ALKBH7]
protein stability index [1]: 4.35 ± 0.29
protein stability index [2]: 4.59 ± 0.22

LHEEEHVLLMAICIVSPDRPGVQD [VDR]
protein stability index [1]: 2.44 ± 0.29
protein stability index [2]: 2.24 ± 0.25

IHLSAPCIYSEVMEALDLQPGLSF [PCMTD2]
protein stability index [1]: 2.23 ± 0.23
protein stability index [2]: 1.96 ± 0.41

SGLDSPSHAAPGPSPDSWVPRPGT [FCHO1]
protein stability index [1]: 4.08 ± 0.18
protein stability index [2]: 4.25 ± 0.19

AEGALEEVPLEVLRQRESKWLDML [TBC1D10A]
protein stability index [1]: 4.09 ± 0.88
protein stability index [2]: 3.91 ± 0.47

LEAAEALLTLRNSAQAPPDSISLH [DMRTC1]
protein stability index [1]: 4.42 ± 0.18
protein stability index [2]: 4.27 ± 0.25

GLQILGHTLRASMRELGLLIFFLF [KCNA4]
protein stability index [1]: 2.95 ± 0.6
protein stability index [2]: 2.96 ± 0.25

LLDALSPEQLVLTLLEAEPPHVLI [ESR2]
protein stability index [1]: 2.55 ± 0.57
protein stability index [2]: 2.08 ± 0.18

GSVPLPESTRELGELLGEARYYLV [KCTD13]
protein stability index [1]: 2.11 ± 0.36
protein stability index [2]: 2.35 ± 0.32

SEMEEEKRQAVNKAVANMQGEMDR [ZMYND11]
protein stability index [1]: 5.41 ± 0.25
protein stability index [2]: 5.42 ± 0.29

LNQIVTEPDANFPQFLHEGLSKPV [FAM104B]
protein stability index [1]: 3.86 ± 0.039
protein stability index [2]: 3.7 ± 0.42

APPLPDSPQPLASSPGPWGLEALA [FCHO1]
protein stability index [1]: 4.43 ± 0.16
protein stability index [2]: 3.99 ± 0.18

YGSCYTVDGVWTAQRPGITHGVGL [SCNN1D]
protein stability index [1]: 2.69 ± 0.5
protein stability index [2]: 2.2 ± 0.15

ARGGAVSARYVLPDEAARARLLQE [DUSP5]
protein stability index [1]: 4.63 ± 0.16
protein stability index [2]: 4.54 ± 0.34

HLEKKGPQVRDWSHYFKIIEDLRA [KRT18]
protein stability index [1]: 2.41 ± 0.13
protein stability index [2]: 2.69 ± 0.14

EAVAGAEGREAPALVAAGGAPEDD [DENND6A]
protein stability index [1]: 5.63 ± 0.16
protein stability index [2]: 5.74 ± 0.12

RTRDYKKTSLAPYVKVFEHFLENL [PRIM1]
protein stability index [1]: 2.11 ± 0.4
protein stability index [2]: 2.48 ± 0.54

ISHWHPNITINIVDDHTPWVKGSV [CLPTM1]
protein stability index [1]: 2.37 ± 0.22
protein stability index [2]: 2.03 ± 0.34

RPLARPIKRGDILPPEKGREVAKE [RHOBTB1]
protein stability index [1]: 5.17 ± 0.088
protein stability index [2]: 4.97 ± 0.12

KKTSITQQPSKHRTDEELQPPTTT [PLK2]
protein stability index [1]: 5.27 ± 0.2
protein stability index [2]: 5.26 ± 0.16

DFLAEKESLTEDEATQFLKQILDG [DAPK3]
protein stability index [1]: 4.4 ± 0.55

LLFSLTQFSVVSVVAYLALAALSA [RTN1]
protein stability index [1]: 3.4 ± 0.54
protein stability index [2]: 3.24 ± 0.058

YALDMQQSNLEPLSPMTASSFLSF [FEM1A]
protein stability index [1]: 2.6 ± 0.23
protein stability index [2]: 2.47 ± 0.085

VVDIFQTVKMLRTQRPAMVQTEDQ [PTPRD]
protein stability index [1]: 3.23 ± 0.32
protein stability index [2]: 3.06 ± 0.27

MLPGVLAGVSAEESWAGPQPLETL [SCNN1D]
protein stability index [1]: 3.38 ± 0.34
protein stability index [2]: 3.53 ± 0.37

KIQLSDSEAKSHSSADDASAWSNI [FAN1]
protein stability index [1]: 4.757 ± 0.032
protein stability index [2]: 4.74 ± 0.11

GISGTTTKKGDLQWNAGEKKLTGG [SNAP91]
protein stability index [1]: 4.43 ± 0.077
protein stability index [2]: 4.86 ± 0.41

KIPGTGALASAAAAVSGSKAKAE [RTN2]
protein stability index [3]: 5.34 ± 0.14
protein stability index [4]: 5.32 ± 0.14

IIRNVGKYREAARLEINVLKKIKE [CLK3]
protein stability index [1]: 2.68 ± 0.51
protein stability index [2]: 2.33 ± 0.27

VIEEAKTAFLLNIQLFEELQELLT [HMOX1]
protein stability index [1]: 2.08 ± 0.32
protein stability index [2]: 2.38 ± 0.2

FPNIASATKFKQLYRSRMNSLEMT [HMOX1]
protein stability index [1]: 2.37 ± 0.16
protein stability index [2]: 2.62 ± 0.23

LTKASLKPRGCSKPPWRPPGGKL [SPACA9]
protein stability index [3]: 2.55 ± 0.65
protein stability index [4]: 3.35 ± 1

AEKSGEATDGARPQALPEPMQESK [CHGA]
protein stability index [1]: 5.47 ± 0.3
protein stability index [2]: 5.48 ± 0.22

KKIEFGVVYSCVEGKMYTARKGKG [IMPA1]
protein stability index [1]: 3.06 ± 0.075
protein stability index [2]: 3.24 ± 0.12

LQSYQAEIIELRRTVNALEIELQA [KRT33B]
protein stability index [1]: 2.59 ± 0.54
protein stability index [2]: 2.27 ± 0.3

LTADSRKSHLIFPQPNYADTLISQ [PCDHGA10]
protein stability index [1]: 3.17 ± 0.17
protein stability index [2]: 3.11 ± 0.27

RSLQLRIQELELQAQIHGLPVPPT [TFE3]
protein stability index [1]: 3.01 ± 0.19
protein stability index [2]: 2.89 ± 0.21

DAALLEMENNHTVAITILQDDHDH [MTUS2]
protein stability index [1]: 4.98 ± 0.21
protein stability index [2]: 4.92 ± 0.065

QETAEFFLSLDIPIGELYGLSESS [ACSBG2]
protein stability index [1]: 2.61 ± 0.37
protein stability index [2]: 2.47 ± 0.41

EGARAAGLGELGAALLQLVRRLQA [ESRRA]
protein stability index [1]: 3.04 ± 0.44
protein stability index [2]: 3 ± 0.18

ERIQELEDLLAKEKDNSRRMLTDK [LMNB1]
protein stability index [1]: 4.85 ± 0.29
protein stability index [2]: 4.91 ± 0.34

NSLAALDLSGIQTSDAAFLTQWKD [ZER1]
protein stability index [1]: 4.25 ± 0.2
protein stability index [2]: 4.29 ± 0.23

QPIHLWQFLKELLLKPHSYGRFIR [SPDEF]
protein stability index [1]: 2.69 ± 0.13
protein stability index [2]: 2.65 ± 0.19

ASKCKGAAVKLADFGLAIEVQGDQ [CAMK2B]
protein stability index [1]: 3.5 ± 0.28
protein stability index [2]: 3.6 ± 0.37

ILLVGYPPFWDEDQHRLYKQIKAG [CAMK2A]
protein stability index [1]: 2.29 ± 0.32
protein stability index [2]: 2.24 ± 0.19

ASVPKVETVKSDNKDDDIDIDAI [EIF5]
protein stability index [3]: 5.59 ± 0.17
protein stability index [4]: 5.53 ± 0.22

SYRETRRKEGIVKLKPHEEPLRSE [PTPN9]
protein stability index [1]: 4.66 ± 0.079
protein stability index [2]: 4.73 ± 0.3

IKQDINSLNKQIAQLQDFVRAKGS [STX5]
protein stability index [1]: 3.25 ± 0.12
protein stability index [2]: 3.38 ± 0.28

RGCSRVEGGGTSLHVACELARPEC [ANKRD9]
protein stability index [1]: 3.62 ± 0.3
protein stability index [2]: 3.69 ± 0.18

CHHLPVIRQLATSGRFIVIIPRTV [SMG5]
protein stability index [1]: 2.52 ± 0.6
protein stability index [2]: 2.56 ± 0.33

APNRFFQKLNVFKNFIGLLQNQNF [NLN]
protein stability index [2]: 2.24 ± 0.82

KGKKLYPVVSAVWGHCEIRMRYLN [SPSB1]
protein stability index [1]: 2.23 ± 0.35
protein stability index [2]: 2.26 ± 0.23

IMVGFILYCSTPTRTAEPAESSVP [SLC35F2]
protein stability index [1]: 3.15 ± 0.68
protein stability index [2]: 2.62 ± 1

LIALANRFCLPHLVALAEQHAVQE [RHOBTB1]
protein stability index [1]: 3.16 ± 0.47
protein stability index [2]: 3.33 ± 0.47

SQSLWNRLSVLLNLLPAAGELQES [SMG5]
protein stability index [1]: 2.75 ± 0.37
protein stability index [2]: 2.25 ± 0.18

AIQDQLPRLQQLLKTLEEGLEGLE [FANCE]
protein stability index [1]: 3.61 ± 0.32
protein stability index [2]: 3.68 ± 0.23

SSAGGAKAGQPESRALALFDIQKI [ZNF8]
protein stability index [1]: 3.99 ± 0.52
protein stability index [2]: 4.26 ± 0.26

FQASNPYLPTRGGTTMASGGRFRC [TRIM55]
protein stability index [1]: 2.54 ± 0.65
protein stability index [2]: 3.14 ± 0.7

DAGGWVLIDRSGRHFGTILNYLRD [KCTD13]
protein stability index [1]: 2.33 ± 0.25
protein stability index [2]: 2.08 ± 0.42

KNMDQVAPVANSYRGTLKRQPAFD [ETS2]
protein stability index [1]: 3.99 ± 0.41
protein stability index [2]: 4.15 ± 0.21

GSRHPTLVLPLVPELLSTHPFFDT [INTS4]
protein stability index [1]: 2.23 ± 0.28
protein stability index [2]: 2.31 ± 0.078

KEMTQKLEALHLEALCEEDLLLWI [DENND6A]
protein stability index [1]: 2.23 ± 0.28
protein stability index [2]: 2.26 ± 0.32

VDLSRILNEMRDQYEKMAEKNRKD [KRT17]
protein stability index [1]: 3.52 ± 0.24
protein stability index [2]: 3.76 ± 0.36

KPGLRRSPIKKVRKSLALDIVDED [MYBL2]
protein stability index [1]: 4.84 ± 0.5
protein stability index [2]: 4.92 ± 0.48

AAAVLFRMSEDKPQDYKKRLSVEL [CTNNB1]
protein stability index [1]: 2.62 ± 0.31
protein stability index [2]: 2.25 ± 0.27

RSDVEKGGKIIMPPSALDQLSRLN [UFD1]
protein stability index [1]: 3.55 ± 0.41
protein stability index [2]: 3.97 ± 0.28

LESRQRSLEQANRSLQLRIQELEL [TFE3]
protein stability index [1]: 3.97 ± 0.27
protein stability index [2]: 3.98 ± 0.4

RRKSEAGSGAASSSGEDKENDGFV [CDC25B]
protein stability index [1]: 5.42 ± 0.29
protein stability index [2]: 5.49 ± 0.18

PAPLCGGPSAEAYLLHPAAFHGAP [TBX6]
protein stability index [1]: 2.82 ± 0.34
protein stability index [2]: 2.95 ± 0.27

DFMELGRSIPDTQLEQVIESQKAN [ACSBG2]
protein stability index [1]: 5.16 ± 0.26
protein stability index [2]: 4.99 ± 0.26

LGKLIPRHQSIFKSNGFFHGISIP [CDKL4]
protein stability index [1]: 2.17 ± 0.052
protein stability index [2]: 2.23 ± 0.41

QSKTASDKSPSTVRDQGPSIPLTP [FBF1]
protein stability index [1]: 5.07 ± 0.21
protein stability index [2]: 5.15 ± 0.099

FVRLFVDENLDRMVPISKQPKEKI [NOL4L]
protein stability index [1]: 2.41 ± 0.098
protein stability index [2]: 2.65 ± 0.12
